Experimental data published in article PMC3883574.

Molecular target: double-domain activation-associated secreted protein (ASP) (Cooperia oncophora (endogenous in adult worms))
Experiment: reducing against non-reducing SDS-PAGE, bands identified by MALDI-TOF MS

## double-domain activation-associated secreted protein (ASP) (natural protein)
  stoichiometry N: 2
